According to the DeepSol protein solubility set:

Experiment: soluble on expression in E. coli; label from the status in PepcDB or PDB records

Sequence | soluble on expression in E. coli
MGSDKIHHHHHHMNSPAMSPNTLGIDFGTSNSAAGLAVAGRPWLVELEPGETTLPTAVFFDSDSKKMRIGRSATRALIEGEEGRFMRALKSLLGTSLLYEKRRLGGVTMDFTDVIAHFLREVKTRAETATRMEFTHALSGRPVKFHSKDETRNARAEEDLRHCYKKAGFQDVTFMYEPEAALRAARPHPGIGLVVDIGGGTSDFTCFEQDATGGTRILASHGLRLGGTDFDRQISIDHVMPHLGRGAMIRNSFGEGSLPAPNRIFNDLATWQMIPFLYGLDTRRAARDLAQNAEDPTTLNRLVQVLEDELGHDLAFATEAGKIRANGSDDAGAQIDLRLIERGLSAALPRAALEASLAQMVREIQDEAKETLRLADVAPEAVTRCVMVGGSALLMAVRAALQDLCPTAEIETERALTAVADGLALETQDGAA | not soluble
MESYSQRQDHELQALEAIYGSDFQDLRPDARGRVREPPEINLVLYPQGLAGEEVYVQVELRVKCPPTYPDVVPEIDLKNAKGLSNESVNLLKSHLEELAKKQCGEVMIFELAHHVQSFLSEHNK | soluble
MADEIAKAQVARPGGDTIFGKIIRKEIPAKIIFEDDQCLAFHDISPQAPTHFLVIPKKHISQISAAEDADESLLGHLMIVGKKCAADLGLKKGYRMVVNEGSDGGQSVYHVHLHVLGGRQMNWPPG | soluble
MSLFRGFGRSTLAKIGSTEISTEQFRQTYNDRLQQIGRQFGRPLTPDQARAIGIDRQVLQQTIAEAALDEDARRLGLGQSDADTMKSILEDPNFKGANGQFDANRFQQLIRQFGFTEQRYLAEQRRVALRRQIAGSLTAGLEAPKTLMQALSQFQSEERAIDYLKLTDAQAGTIAAPSPADLTAFYDSHKAQFRAPEYRKISFLVVTPESIAKWAEVSDADAQKLFEQRKDKLSTPEKRQLLQIVFPSVEEAQAGRAKIASGTSFADLAKERGVKPADLDLGLVSQSEMLDQKVAAAAFALPLNEVSQPVQGQFGTVLLEVTKIETEGHHHHHH | soluble
RQACYQEIIDTILSKKPHAFESLVVLLLQKMGYGGEIKQSGLVTPYSNDGGIDGIIKEDVLGFGRIHIQAKRYALENSVQRQEIQSFVGALAVAQSNKGVFITTSSFSRGAIQYAVGLNGSTTLILIDGQKLAEYIYEYGVGLQVEHTVEIKKLDSEFWDSMENEAGVPDL | not soluble
MEPPKLLGVVLTTALLFHIALTAKQAVVSRKSKLCGNVECEEVLFKARVKRVMGINNDPSFLNLAENAIISVVAVKFSDRPDIMEGKLNGEGSNGFFYAGAIDIMPFAEFLRTAITDKKEMLMISQNPADIGDKRIVGFLHSETDLVRDFNAKNAQAAAENGLPAPEPIPIPEPAHTGHGHSHGGHGHSHGGHGHSHGHPAPTPAPTPAPKPIEEAPKPAEEPVKPADLEMDAEIERLIKEEEERMKNVAEQPPLVLQSLPETPEAQKLPEEPLEPVTPEPIPEAPVPIAQYIQEPTTTPAPLEAPAPVENAPNLPTPTFSVDDLMAQAARDALNSNSIVPDAPKVEEPEPAPTPAPAPAEDPVVTPAPEELTGVCYKDDCQGLQTPPPPAPPPPAPAVPEEAQAPTPAPEEAPEAQIPAETAQIPPENAVPEAPEEPAPTTTPPPISAGEAEFLKWEEARQKREAVAAAPYEDAQAHQFVASPPPHVSSGLIELIRSSLGLGNITDSSVLLVVNLTFVAASFLVYIIIRSLSSGGESDILDRQAHFDLMNKHKQLQLQLNAKITEIQNLQANGAAAQRPEQPNYEPELLALRQQLAHLQSELQTAHAQRQEFEIHYHQIRELAEQKDHQIAQLTEQANDYQERLEKSQSELQELARHVDSARAELMDSQTSDYGRQQELMEKQAELEQIYVKIDNLTAENRDLTDKIAQLQVSDSLELEELEELRNKNLELQEQVKQLKEELEKEKSVAGSGNSGGWSDIDDNEVVEAVQPIETTPISSENSENLKKFEAEIAELKASLEKTEKELTKYRNLYNEKLTAISDKENRSQIEMEHKLKNAESDLQEAKRRAEEIGAEKKELSDRLNEMLKNLNQSMQKSAENDKMLTQLREEAFAKEKQLLEHDSVLRKKDDKIRELDAEFKRVKMEYVKLETKSFHDVRKLNMDVEELKTQLSMAGGVTSSRSIPDRLVSPLQEPIWDEPEPALQRVVLPLDGYSSMRRRSTRRSQLPFGAESPSDQEKKQAAPSHRRRSRSHGRQPPSFHDPYSMNPYLPGSSDSSFMSTSQPQFLPLNRQHSRSGHLMSNSANGPYSSGGSNGGRSPPPEMPLLSAIPPPGARKPLGKRPDSAHHLGK | not soluble
MSLKTLFDKTNLGTINMKNRFLRGALWTALADEKGHMTNELSDVYEELARGGVGTIVTGYAFVTENEQPNPRMMGIYDDSFIPEYKEFTDKIHRLGSNIIMQIVYGGFMTEFNVGERVIWGPSTTKNEVTGTLSREMTKEDIKYLVNAYAEAALRVKKSGFDGVEIHGGHGYLVSQFLSPYYNKRTDEYGGSIENRGRFVFEIFKAIREKVGEKFPILIKLNSSDYVKEGGLTIEDSLYVAERLAELGIDAIEVTGGNESIEEVMKNNLGPSRTKVAISKDRESYFKEYAIKLAERINKPVILSGGNRHFDVMEELLNDTNIEYFSLSRPLTAEPDLINKWYSGDLKKPKCKSCNQCYKTYGKRCIFNIKEGHHHHHH | soluble
MSLTNYKVVVLDMDDTLLNSDNVISEETANYLTAIQDEGYYVVLASGRPTEGMIPTARDLKLPEHHSYIISYNGSKTINMTNEEVEVSKSIGKQDFDEIVDYCRDRGFFVLTYHDGQIIYDSEHEYMNIEAELTGLPMKRVDDIKAYIQGDVPKVMGVDYVANITEARIDLNGVFNDNVDATTSKPFFLEFMAKDVSKGNAIKALCHKLGYSVDQVIAFGDSMNDKSMFEVAGLAIAMGNASDELKQYADEVTLDHNENGIPHALKKLLEGHHHHHH | soluble
MGSDKIHHHHHHMPSSTTLQHAIENITIWRKGEQRAPHKPLLLLYVLSQYQRGHARMFDYASEIRDELHSLLERFGPQRRQYRPDMPFWRLKGDGFWELHNSDQCSTQGSRQPPGKELELCHVAGGFDEPHFALLNRNKRLINTLAHQILEAHFPESIQEELAEEMGFDLQQIRKERDPHFRQQVLRAYNYECAICGFNMRHDNTSVALEAAHIKWKQHGGPCEIPNGLALCAIHHKAFDKGSIGLDEDMRIQVSPAVNGGGIVGRLFWDFDGKPITLPQGKECYPQEGFVAWHRREVFRG | not soluble
MGSDKIHHHHHHMPATVPFVGPEAIERQRNLPVKARIGANESGFGPSPKVHLALQAASSDIWKYADPENFDLKAALAAHYGLAADNFAVGEGVDDLLGLTVRLVIEQGLPVVTSLGGYPTFNFHVNGFGGQLVTVPYRQDREDLDGLLEAVRRENAPLAYLANPDNPMGSWHESHDVVAFARALPETCLLILDEAYSETAPAGSIPAVDALIDLPNVLRMRTFSKAYGLAGARIGYAIGTPGTVSAFDKIRNHFGMVRTSVAAALAALADQDYLTATVARIIAARERISSIARQNGLQPLASATNFVAVDCGRDPAYARSIVDGLMQHGVFIRMPGVAPLNRCIRISAGLPEDLDLLEQALPIVLRDIG | not soluble
MSLSDVKVIIMDIDGTLTTSKKIISEKTKKALKKAQELGAVLILASGRPTSGLMDFAKELEMDKNHGLLVSFNGARVVDCETNKILFNETMSIDQGQAVLEHMKKFEVKPMIDKGDYMYVNDVFDNEIQYKGEPFNIIQYESRNNKFKLCEKHDLAAFADYPLNKILTAGEPEYLKKHYKEMMEPFKESLNCMFTADFYFEFTAEGIDKAKALDTVLIPMGYKKEEMIAFGDGHNDISMVKYAGIGVAMDNAVQELKNAADEVTLSNEEDGIAYTLSKYMKGLEGHHHHHH | soluble
MVTPFPEVSEWLCIGQIVGAHGLRGEVKVKPFSDFPERFTVPGCRWLRSPRQPQPYAVTLLRGRFLPRAEQFVVTFAEISDRTAAEALKGAEILVPASDRPPLAANEYHLMDLIGLAVYHQGERVGEVVGLVNAGNDLLEVQLLDPAPKAPQSVYIPFVPAIVPVVDLAARRIEIDPPLGLLPLEHHHHHH | not soluble
MGSDKIHHHHHHMSTDNYYIRRRLLSSLTAHLDQPEITVLVGPRQSGKTTILKRLESELRAGGRKTLWLNLDFEDDFRHVASEGALLQKIQLELGSGGGVVFIDEIQRRENAGLFLKGLYDQGLPWKFVVSGSGSIELKEKISESLVGRKRLFELSTVSFGEFADFRTGYRYTDRLRDYFRTEPSKTDQLFREYLMYGGYPRVVLADTHQEKMATINEIFRSYLEKDIVYLLRVEKSESFSNLVRVLATQSGKMVSYSELSATLGLSLATVKLYLWYLEKTYIIDKVTPWYTNIRKEITKAPVYYFRDIGLRNFAAGSFGALSDSEAGFAFQNVIHAMLKERFPLADSTIHYWRTKDKAEVDFVLRSGDTVTPLEVKYRDMKKLDVRRSFLGFLTRYHPEFGYIVNRNYSDEALICQTRVRCLPYWELMFEEAFP | not soluble
MGSDKIHHHHHHMVVILSERAFSRRDQTGAEVMLNRRRFLTNAATAAAATLWVSKGGMQARAEEAGNGSPWRRFEIITKVDLQPAEGPAQLWLPVVRSAGDYQKADAPLWVSNSTDIRMEKDPSSGADILRVMWEDEPRRVIEVTQHVATRDRRVTSKIAATEAELQHELRGTPSMPVDGIVKTTAMRIVEGRDRAEDRARAIYDWVIDNTFRDANIDGCGVGNARDMLETGYFGGKCADISSLFVSLARAAGLPARDVFGIRVADSADFKSLGRSGDITKAQHCRAEVYLDAHGWVPVDPADVRKVVLEENLPLDNPAVRAFREKAYGNWEMNWVGYNTARDLVLPGGELRQGFLMYPAAVTSRGELDCLNPQTFAYSITSREITA | not soluble
QKKDTSNHFHVFVGDLSPEITTEDIKAAFAPFGRISDARVVKDMATGKSKGYGFVSFFNKWDAENAIQQMGGQWLGGRQIRTNWATRKPPAPKSTYESNTKQ | soluble
MAHHHHHHMITDLLFKSQIIYNKKDILCARYILFYQHICKRGYKEAAPKVFNKKSSHTSRWIQRQISDRYVLRAKNDNYRSRAAYKLIELDNKYLFLKKNKIILDIGCYPGSWCQVILERTKNYKNKIIGIDKKIMDPIPNVYFIQGEIGKDNMNNIKNINYIDNMNNNSVDYKLKEILQDKKIDIILSDAAVPCIGNKIDDHLNSCELTLSITHFMEQYINIGGTYIVKMYLGSQTNNLKTYLKGMFQLVHTTKPKASRNESREIYLVCKNFLGRKKITEDVQIKGSFSSKEGYY | not soluble
EMETYVNKLHEGSTYTAAVQYNVLEKDDDPASLTIWVPMFQSSMPADLLIKELANVNILVKQISTPKGPSLRVMINSRSAVLAQMPSKFTICANVSLDDRSKLAYDVTTPCEIKACSLTCLKSKNMLTTVKDLTMKTLNPTHDIIALCEFENIVTSKKVIIPTYLRSISVRNKDLNTLENITTTEFKNAITNAKIIPYSGLLLVITVTDNKGAFKYIKPQSQFIVDLGAYLEKESIYYVTTNWKHTATRFAIKPRED | soluble
MGSDKIHHHHHHMLASSDLPYRKMITWAGFYQDYYLVDINTGRKLPLLTQQPSDSDPSLSGDGKFVVYYQQGHVYLYDIAQGRRTNLTQSLKVSFADEDHDYPSNAPGYGFGPWLKDDAGILVYDKFDVWQFNTASKTGFALTAGQGRAQKIQYRLEGLVDNPDEPTTLAYNATVLLHGYSDKTKADGFYQATLGEAGVKTLMEGEYKLTVLGRSKDTDTLVFSKERFDLFPDLYTASYQAPQQAVKQTDLDKQRQAFNWSQAELVHWTNGDGKPLDGVLIKPTNYQAGERYPVLVYYYELMTDRLHAFPQMKVNHRPNFAWYVNNGYALFLPDIRFDIGYPGASSVQTLTSGVQKLIDMGVADANAIGLQGHSWSGYQTAFAITQTKMFKAAVAGAPVANMTSAYNGIRHGTGIARQFQYETGQSRIGASLFAAPQKYIENSPVFYADRIKTPLMIMFGDKDDAVPWEQGVEMYLAMRRAGKDVVFLQYEDEPHHLKKYPNKLDYSIRMMEYFDHYLKGKPAPAWLSQGEAYVEYKADDE | not soluble
